The record followed here is patent US20190284275A1.

This test concerns the target human KRAS (antigen of the affinity data in Table 1; variant not stated) (human) (UniProt P01116). Briefly: kinetic affinity measurement (Rmax in RU; method and format not named).

B1: 1F4_5C5 (antibody, V domains shown)
VH: EVQLVQSGGGVVQPGRSLRLSCAASGFTSKKYGMHWVRQAPGKGLEWVAVISHDGSKKYYADSVKGRFTISRDNSKNTLFVQLSSLRPEDTAVYYCATSLYSSMDLWGQGTTVTVSS
VL: QSVVTQPPSVSAAPGQKVTISCSGSNSNIGKNYVSWFQQVPGTAPKLLIFEDNQRPSGIPDRFSASKSGTSASLAISGLQSEDEADYYCAAWDDLGGDHWVFGGGTKLTVL
One may read the Kd as the concentration at which binding is half-saturated. High values mean lower affinity, low ones higher affinity. The koff is the first-order rate constant of dissociation. A low value points to a long-lived complex. What is called kon is a measure of how fast the partners come together. A high value points to fast association. Molecule B1 gave an equilibrium dissociation constant (Kd) of 6.63 nM, a koff of 0.0011 s⁻¹ and a kon of 166000 M⁻¹ s⁻¹.

B2: 1F4_4E10 (antibody, V domains shown)
VH: EVQLVQSGGGVVQPGRSLRLSCAASGFTSRAPGMHWVRQAPGKGLEWVAVISHDGSKKYYADSVKGRFTISRDNSKNTLFVQLSSLRPEDTAVYYCATSLYSSMDLWGQGTTVTVSS
VL: QSVVTQPPSVSAAPGQKVTISCSGSNSNIGKNYVSWFQQVPGTAPKLLIFEDNQRPSGIPDRFSASKSGTSASLAISGLQSEDEADYYCAAWDDHNGEHWVFGGGTKLTVL
For B2, the Kd was found to be 9.6 nM, the off-rate (koff) worked out at 0.0013 s⁻¹ and the kon turned out to be 135000 M⁻¹ s⁻¹.

B3: 1F4_1E3 (antibody, V domains shown)
VH: EVQLVQSGGGVVQPGRSLRLSCAASGFTSRHPGMHWVRQAPGKGLEWVAVISHDGSKKYYADSVKGRFTISRDNSKNTLFVQLSSLRPEDTAVYYCATSLYSSMDLWGQGTTVTVSS
VL: QSVVTQPPSVSAAPGQKVTISCSGSNSNIGKNYVSWFQQVPGTAPKLLIFEDNQRPSGIPDRFSASKSGTSASLAISGLQSEDEADYYCAAWDDYRGPHWVFGGGTKLTVL
As to B3, the Kd amounted to 4.2 nM.

B4: 1F4_5F8 (antibody, V domains shown)
VH: EVQLVQSGGGVVQPGRSLRLSCAASGFTSRNPGMHWVRQAPGKGLEWVAVISHDGSKKYYADSVKGRFTISRDNSKNTLFVQLSSLRPEDTAVYYCATSLYSSMDLWGQGTTVTVSS
VL: QSVVTQPPSVSAAPGQKVTISCSGSNSNIGKNYVSWFQQVPGTAPKLLIFEDNQRPSGIPDRFSASKSGTSASLAISGLQSEDEADYYCAAWDDSTGVHWVFGGGTKLTVL
B4 gave a Kd of 12.6 nM, a koff of 0.00229 s⁻¹ and an on-rate (kon) of 182000 M⁻¹ s⁻¹.
